Holding throughout (assay): SPR, Biacore 8K, 37 C, biotinylated target on SA chip, single-cycle kinetics
For assay [1], the target named is T1, Mouse IL-18Rα extracellular domain (mouse, UniProt Q61098 20-326, biotinylated (site not stated)).
T1 sequence: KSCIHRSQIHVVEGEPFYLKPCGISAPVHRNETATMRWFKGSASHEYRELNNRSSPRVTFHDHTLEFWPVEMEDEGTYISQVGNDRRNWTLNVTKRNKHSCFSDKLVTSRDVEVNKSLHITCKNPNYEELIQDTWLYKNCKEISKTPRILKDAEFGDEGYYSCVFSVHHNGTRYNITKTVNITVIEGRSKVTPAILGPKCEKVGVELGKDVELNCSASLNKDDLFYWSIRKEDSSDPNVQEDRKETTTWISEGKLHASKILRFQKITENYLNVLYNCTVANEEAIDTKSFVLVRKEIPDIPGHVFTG
The protocol:
(§1) SPR experiments were performed using a Biacore 8K (Cytiva) at a temperature of 37° C. Biotinylated human or mouse IL-18Rα and IL-18BP were immobilized onto Biacore streptavidin sensor chip (Series S Sensor Chip SA, Cytiva) to yield an Rmax ≤50 RU. Measurements were made with five, three-fold dilutions into HBS-P+ buffer (10 mM HEPES pH 7.4, 150 mM NaCl, 0.005% surfactant P20). Interactions were evaluated using the single-cycle kinetics method and analyzed with the Biacore 8K evaluation software and fit to a 1:1 binding model.
(§2) A subset of variants were selected for analyses of binding kinetics to the L-18 receptor, IL-IM, and the decoy receptor, L-18BP, by surface plasmon resonance (SPR) (Table 8). With two exceptions, all kinetics constants are within an order of magnitude of wild-type IL-18.

In assay [2] the target is T2, Mouse IL-18BP (isoform D) (mouse, UniProt Q9Z0M9 29-193, biotinylated (site not stated)).
T2 sequence: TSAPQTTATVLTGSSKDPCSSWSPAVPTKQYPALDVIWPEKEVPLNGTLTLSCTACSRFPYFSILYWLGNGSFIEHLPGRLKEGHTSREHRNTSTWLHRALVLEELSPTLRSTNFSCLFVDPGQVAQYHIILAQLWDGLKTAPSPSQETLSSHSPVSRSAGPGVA
The protocol: as §1, §2

The target in assay [3] is T3, Human IL-18Rα extracellular domain (human, UniProt Q13478 22-329, biotinylated (site not stated)).
T3 construct: also called IL-18 receptor
T3 sequence: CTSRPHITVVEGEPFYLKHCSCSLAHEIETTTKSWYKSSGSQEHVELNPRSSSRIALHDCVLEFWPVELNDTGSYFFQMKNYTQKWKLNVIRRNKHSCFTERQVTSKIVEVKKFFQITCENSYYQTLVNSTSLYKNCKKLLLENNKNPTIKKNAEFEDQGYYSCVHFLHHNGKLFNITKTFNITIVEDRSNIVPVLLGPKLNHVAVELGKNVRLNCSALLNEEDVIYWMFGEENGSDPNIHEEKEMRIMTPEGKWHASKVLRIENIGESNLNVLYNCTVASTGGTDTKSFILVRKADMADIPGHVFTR
The protocol:
as §1, §2

Assay [4] concerns the target T4, Human IL-18BP (isoform A) (human, UniProt O95998 31-194, biotinylated (site not stated)).
T4 construct: also called decoy receptor
T4 sequence: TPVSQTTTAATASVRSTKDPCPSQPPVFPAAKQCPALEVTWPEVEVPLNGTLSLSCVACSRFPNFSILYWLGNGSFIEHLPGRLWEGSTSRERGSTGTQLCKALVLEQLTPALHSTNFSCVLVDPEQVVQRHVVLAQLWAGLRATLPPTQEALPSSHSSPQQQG
The protocol: as §1, §2

B1: Mouse wild-type mature IL-18 (ligand)
chain: NFGRLHCTTAVIRNINDQVLFVDKRQPVFEDMTDIDQSASEPQTRLIIYMYKDSEVRGLAVTLSVKDSKMSTLSCKNKIISFEEMDPPENIDDIQSDLIFFQKRVPGHNKMEFESSLYEGHFLACQKEDDAFKLILKKKDENGDKSVMFTLTNLHQS
notes: also called Mouse WT; mouse mature IL-18
As to B1, in assay [1], the Kd is 1.27 nM, the koff worked out at 0.0097 s⁻¹ and the kon worked out at 7.6e+06 M⁻¹ s⁻¹. The molecule also came in with a kon in assay [2] of 650000 M⁻¹ s⁻¹.

B2: Mouse IL-18 A159C/V182C (ligand)
chain: NFGRLHSTTAVIRNINDQVLFVDKRQPVFEDMTDIDQSASEPQTRLIIYMYKDSEVRGLAVTLSVKDSKMSTLSSKNKIISFEEMDPPENIDDIQSDLIFFQKRVPGHNKMEFESSLYEGHFLCSQKEDDAFKLILKKKDENGDKSCMFTLTNLHQS
In assay [1], B2 registered a Kd of 1.11 nM, an off-rate (koff) of 0.0077 s⁻¹ and a kon of 7e+06 M⁻¹ s⁻¹. In assay [2], this molecule displayed a dissociation constant Kd of 0.014 nM, a koff of 3.2e-05 s⁻¹ and an association rate constant (kon) of 2.23e+06 M⁻¹ s⁻¹.

B3: Human IL-18 A162C/I185C (ligand)
chain: YFGKLESKLSVIRNLNDQVLFIDQGNRPLFEDMTDSDSRDNAPRTIFIISMYKDSQPRGMAVTISVKSEKISTLSSENKIISFKEMNPPDNIKDTKSDIIFFQRSVPGHDNKMQFESSSYEGYFLCSEKERDLFKLILKKEDELGDRSCMFTVQNED
notes: Made in mammalian cells
In assay [3], B3 showed a Kd of 68.1 nM, a dissociation rate constant (koff) of 0.212 s⁻¹ and an on-rate constant (kon) of 3.11e+06 M⁻¹ s⁻¹. In assay [4], binding was characterised by a dissociation constant (Kd) of 0.0065 nM, the dissociation rate constant (koff) stood at 1.89e-05 s⁻¹ and the kon is 2.91e+06 M⁻¹ s⁻¹.

B4: Human IL-18 S46C/I85C (ligand)
chain: YFGKLESKLCVIRNLNDQVLFIDQGNRPLFEDMTDSDSRDNAPRTIFICSMYKDSQPRGMAVTISVKSEKISTLSSENKIISFKEMNPPDNIKDTKSDIIFFQRSVPGHDNKMQFESSSYEGYFLASEKERDLFKLILKKEDELGDRSIMFTVQNED
notes: Made in mammalian cells
In assay [4], B4 registered a Kd of 0.035 nM, a koff of 0.00012 s⁻¹ and a kon of 3.3e+06 M⁻¹ s⁻¹.

B5: Human IL-18 I107C/N123C (ligand)
chain: YFGKLESKLSVIRNLNDQVLFIDQGNRPLFEDMTDSDSRDNAPRTIFIISMYKDSQPRGMAVTISVKSEKCSTLSSENKIISFKEMCPPDNIKDTKSDIIFFQRSVPGHDNKMQFESSSYEGYFLASEKERDLFKLILKKEDELGDRSIMFTVQNED
notes: Made in mammalian cells
With B5, in assay [3], the equilibrium dissociation constant (Kd) amounted to 14.7 nM, the koff was determined as 0.031 s⁻¹ and the kon was determined as 2.1e+06 M⁻¹ s⁻¹. Moreover, in assay [4], the dissociation constant Kd worked out at 0.007 nM, the koff amounted to 2.1e-05 s⁻¹ and the kon is 2.9e+06 M⁻¹ s⁻¹.

B6: Human IL-18 S46C/V189C (ligand)
chain: YFGKLESKLCVIRNLNDQVLFIDQGNRPLFEDMTDSDSRDNAPRTIFIISMYKDSQPRGMAVTISVKSEKISTLSSENKIISFKEMNPPDNIKDTKSDIIFFQRSVPGHDNKMQFESSSYEGYFLASEKERDLFKLILKKEDELGDRSIMFTCQNED
notes: Made in mammalian cells
In assay [3], B6 had a dissociation constant Kd of 147 nM, a koff of 0.054 s⁻¹ and an on-rate constant (kon) of 360000 M⁻¹ s⁻¹. In assay [4], this molecule registered a Kd of 0.018 nM, an off-rate constant (koff) of 4.3e-05 s⁻¹ and an on-rate (kon) of 2.3e+06 M⁻¹ s⁻¹.

B7: Human IL-18 L174C (ligand)
chain: YFGKLESKLSVIRNLNDQVLFIDQGNRPLFEDMTDSDSRDNAPRTIFIISMYKDSQPRGMAVTISVKSEKISTLSCENKIISFKEMNPPDNIKDTKSDIIFFQRSVPGHDNKMQFESSSYEGYFLASEKERDLFKLICKKEDELGDRSIMFTVQNED
notes: Made in mammalian cells
B7: in assay [3], binding was characterised by a dissociation constant (Kd) of 32.8 nM, the koff is 0.011 s⁻¹ and the kon was 350000 M⁻¹ s⁻¹. In addition, in assay [4], binding was put at a Kd of 0.007 nM, the koff was 2.1e-05 s⁻¹ and the on-rate constant (kon) was 2.93e+06 M⁻¹ s⁻¹.

B8: Human IL-18 T99C/P124C (ligand)
chain: YFGKLESKLSVIRNLNDQVLFIDQGNRPLFEDMTDSDSRDNAPRTIFIISMYKDSQPRGMAVCISVKSEKISTLSSENKIISFKEMNCPDNIKDTKSDIIFFQRSVPGHDNKMQFESSSYEGYFLASEKERDLFKLILKKEDELGDRSIMFTVQNED
notes: Made in mammalian cells
Consider B8, for which, in assay [3], binding was characterised by a dissociation constant (Kd) of 64.4 nM, the dissociation rate constant (koff) amounted to 0.032 s⁻¹ and the kon amounted to 500000 M⁻¹ s⁻¹. In assay [4], this molecule registered a Kd of 0.008 nM, a koff of 2.5e-05 s⁻¹ and a kon of 3e+06 M⁻¹ s⁻¹.

B9: Human IL-18 hCS (ligand)
chain: YFGKLESKLSVIRNLNDQVLFIDQGNRPLFEDMTDSDSRDNAPRTIFIISMYKDSQPRGMAVTISVKSEKISTLSSENKIISFKEMNPPDNIKDTKSDIIFFQRSVPGHDNKMQFESSSYEGYFLASEKERDLFKLILKKEDELGDRSIMFTVQNED
On to B9, for which, in assay [3], the Kd was found to be 1.7 nM, the off-rate constant (koff) amounted to 5.6e-05 s⁻¹ and the kon amounted to 32000 M⁻¹ s⁻¹. In assay [4], binding was characterised by a dissociation constant (Kd) of 0.035 nM, the koff is 4.9e-05 s⁻¹ and the kon was 1.4e+06 M⁻¹ s⁻¹.

B10: Human IL-18 S101C/T109C (ligand)
chain: YFGKLESKLSVIRNLNDQVLFIDQGNRPLFEDMTDSDSRDNAPRTIFIISMYKDSQPRGMAVTICVKSEKISCLSSENKIISFKEMNPPDNIKDTKSDIIFFQRSVPGHDNKMQFESSSYEGYFLASEKERDLFKLILKKEDELGDRSIMFTVQNED
notes: Made in mammalian cells
On to B10, for which, in assay [3], the Kd was 147 nM, the koff was found to be 0.042 s⁻¹ and the kon came out at 280000 M⁻¹ s⁻¹. Besides, in assay [4], binding was characterised by a dissociation constant (Kd) of 0.011 nM, the koff was 2.4e-05 s⁻¹ and the kon stood at 2.3e+06 M⁻¹ s⁻¹.

B11: Human IL-18 F57C/T81C (ligand)
chain: YFGKLESKLSVIRNLNDQVLCIDQGNRPLFEDMTDSDSRDNAPRCIFIISMYKDSQPRGMAVTISVKSEKISTLSSENKIISFKEMNPPDNIKDTKSDIIFFQRSVPGHDNKMQFESSSYEGYFLASEKERDLFKLILKKEDELGDRSIMFTVQNED
notes: Made in mammalian cells
B11: in assay [4], the affinity, expressed as Kd, was 0.007 nM; the koff amounted to 2.2e-05 s⁻¹; the on-rate constant (kon) was found to be 3.4e+06 M⁻¹ s⁻¹.

B12: Human IL-18 Y37C/S91C (ligand)
chain: CFGKLESKLSVIRNLNDQVLFIDQGNRPLFEDMTDSDSRDNAPRTIFIISMYKDCQPRGMAVTISVKSEKISTLSSENKIISFKEMNPPDNIKDTKSDIIFFQRSVPGHDNKMQFESSSYEGYFLASEKERDLFKLILKKEDELGDRSIMFTVQNED
notes: Made in mammalian cells
In assay [4], B12 yielded a Kd of 0.07 nM, an off-rate constant (koff) of 0.00018 s⁻¹ and a kon of 2.6e+06 M⁻¹ s⁻¹.

B13: Human IL-18 S43C/S86C (ligand)
chain: YFGKLECKLSVIRNLNDQVLFIDQGNRPLFEDMTDSDSRDNAPRTIFIICMYKDSQPRGMAVTISVKSEKISTLSSENKIISFKEMNPPDNIKDTKSDIIFFQRSVPGHDNKMQFESSSYEGYFLASEKERDLFKLILKKEDELGDRSIMFTVQNED
notes: Made in mammalian cells
Consider B13, for which, in assay [3], binding was put at a Kd of 54.5 nM, the koff is 0.0241 s⁻¹ and the association rate constant (kon) amounted to 440000 M⁻¹ s⁻¹. In addition, in assay [4], binding was put at a Kd of 0.009 nM, the koff is 3.2e-05 s⁻¹ and the on-rate (kon) came out at 3.4e+06 M⁻¹ s⁻¹.

B14: Human IL-18 L45C/E192C (ligand)
chain: YFGKLESKCSVIRNLNDQVLFIDQGNRPLFEDMTDSDSRDNAPRTIFIISMYKDSQPRGMAVTISVKSEKISTLSSENKIISFKEMNPPDNIKDTKSDIIFFQRSVPGHDNKMQFESSSYEGYFLASEKERDLFKLILKKEDELGDRSIMFTVQNCD
notes: Made in mammalian cells
For the molecule B14, in assay [3], the Kd was found to be 58.7 nM, the off-rate (koff) amounted to 0.028 s⁻¹ and the kon is 470000 M⁻¹ s⁻¹. In assay [4], the dissociation constant Kd is 0.015 nM, the dissociation rate constant (koff) was determined as 3.1e-05 s⁻¹ and the kon was found to be 2.1e+06 M⁻¹ s⁻¹.

For the origin of these results see patent publication US20240409599A1 (Genentech, published 2024).
